Experimental data taken from the supplement of paper PMC10065799, “High-throughput profiling of sequence recognition by tyrosine kinases and SH2 domains using bacterial peptide display” (eLife, 2023).

How the values were obtained:
AncSZ = test: phosphorylation enrichment, bacterial display (enrichment ratio); higher = better substrate or ligand; peptides without Tyr show the background
EPHB1 = EPHB1 (UniProt P54762); test: as above
EPHB2 = EPHB2 (UniProt P29323); test: as above
FGFR1 = FGFR1 (UniProt P11362); test: as above
FGFR3 = FGFR3 (UniProt P22607); test: as above
Fer (mouse) = test: as above
Fes = Fes (UniProt P07332); test: as above
Fyn = Fyn (UniProt P06241); test: as above
Hck = Hck (UniProt P08631); test: as above
Jak2 = Jak2 (UniProt O60674); test: as above
MERTK = MERTK (UniProt Q12866); test: as above
c-Abl (mouse) = test: as above
c-Src = test: as above
Grb2 SH2 = Grb2 SH2 (UniProt P62993); test: SH2 binding enrichment of the phosphorylated peptide, bacterial display (enrichment ratio); higher = better substrate or ligand; peptides without Tyr show the background
SHP2-C SH2 = test: as above
c-Src SH2 = test: as above
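Wherever SH2 binding enrichment of the phosphorylated peptide, bacterial display is given: peptide library displayed on the E. coli surface as eCPX fusions, selected cells deep-sequenced, score is each peptide's frequency after selection divided by its frequency in the input.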
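Wherever phosphorylation enrichment, bacterial display is given: 11-residue human phosphosite peptides and single-mutation variants displayed on the E. coli surface, counted by deep sequencing, each peptide's frequency after selection divided by its frequency in the unselected input library; frequency after pTyr selection over input frequency; kinase dosed for 20-30% of maximal phosphorylation in three min.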

Chain of FGFR3 (P22607 whole entry, looked up): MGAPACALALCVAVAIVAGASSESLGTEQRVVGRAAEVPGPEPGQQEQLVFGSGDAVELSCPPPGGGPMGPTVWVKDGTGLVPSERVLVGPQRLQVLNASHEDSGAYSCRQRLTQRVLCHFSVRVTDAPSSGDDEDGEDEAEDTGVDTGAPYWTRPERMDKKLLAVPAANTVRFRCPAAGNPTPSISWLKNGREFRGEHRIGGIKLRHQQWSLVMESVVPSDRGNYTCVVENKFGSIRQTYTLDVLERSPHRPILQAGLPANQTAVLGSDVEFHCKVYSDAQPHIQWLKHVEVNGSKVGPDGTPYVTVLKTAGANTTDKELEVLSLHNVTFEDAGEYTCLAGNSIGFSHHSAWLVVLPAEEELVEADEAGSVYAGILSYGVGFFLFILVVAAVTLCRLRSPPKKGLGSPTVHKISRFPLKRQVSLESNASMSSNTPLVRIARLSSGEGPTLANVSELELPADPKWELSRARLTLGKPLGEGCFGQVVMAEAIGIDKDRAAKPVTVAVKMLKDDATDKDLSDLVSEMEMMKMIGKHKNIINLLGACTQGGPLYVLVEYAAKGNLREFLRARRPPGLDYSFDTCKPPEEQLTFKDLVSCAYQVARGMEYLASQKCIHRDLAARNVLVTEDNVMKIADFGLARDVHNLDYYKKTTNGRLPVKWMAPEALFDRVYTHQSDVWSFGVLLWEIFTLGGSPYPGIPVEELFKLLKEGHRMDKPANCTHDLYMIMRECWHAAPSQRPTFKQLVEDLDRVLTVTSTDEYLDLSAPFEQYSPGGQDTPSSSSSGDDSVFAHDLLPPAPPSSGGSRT
Chain of EPHB2 (P29323 whole entry, looked up): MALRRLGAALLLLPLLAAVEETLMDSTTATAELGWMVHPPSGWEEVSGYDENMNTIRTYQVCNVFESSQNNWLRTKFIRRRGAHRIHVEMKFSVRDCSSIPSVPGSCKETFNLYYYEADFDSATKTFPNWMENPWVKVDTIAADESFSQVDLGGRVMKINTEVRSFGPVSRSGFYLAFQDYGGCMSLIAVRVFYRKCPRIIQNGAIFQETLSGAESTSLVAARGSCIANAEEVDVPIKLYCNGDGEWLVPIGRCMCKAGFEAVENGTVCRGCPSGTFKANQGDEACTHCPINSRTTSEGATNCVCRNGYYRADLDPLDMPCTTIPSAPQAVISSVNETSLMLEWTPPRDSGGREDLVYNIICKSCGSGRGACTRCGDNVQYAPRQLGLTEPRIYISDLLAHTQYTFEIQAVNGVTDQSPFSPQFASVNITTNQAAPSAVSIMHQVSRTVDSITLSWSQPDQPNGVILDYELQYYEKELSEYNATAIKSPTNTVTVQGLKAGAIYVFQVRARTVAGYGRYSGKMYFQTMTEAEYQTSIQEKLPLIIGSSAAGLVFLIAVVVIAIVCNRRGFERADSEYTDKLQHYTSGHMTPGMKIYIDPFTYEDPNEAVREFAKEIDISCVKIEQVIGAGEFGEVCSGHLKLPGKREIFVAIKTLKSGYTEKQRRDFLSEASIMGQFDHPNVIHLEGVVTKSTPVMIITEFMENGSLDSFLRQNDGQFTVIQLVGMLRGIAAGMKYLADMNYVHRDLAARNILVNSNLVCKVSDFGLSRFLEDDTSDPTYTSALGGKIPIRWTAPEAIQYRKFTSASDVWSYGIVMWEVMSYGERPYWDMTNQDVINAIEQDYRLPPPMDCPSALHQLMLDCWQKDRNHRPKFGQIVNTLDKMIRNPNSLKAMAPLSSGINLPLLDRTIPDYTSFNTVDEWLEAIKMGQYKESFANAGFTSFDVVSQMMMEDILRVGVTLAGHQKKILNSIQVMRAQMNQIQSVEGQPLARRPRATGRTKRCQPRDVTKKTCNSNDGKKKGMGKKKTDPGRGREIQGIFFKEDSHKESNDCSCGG
Chain of Fes (P07332 whole entry, looked up): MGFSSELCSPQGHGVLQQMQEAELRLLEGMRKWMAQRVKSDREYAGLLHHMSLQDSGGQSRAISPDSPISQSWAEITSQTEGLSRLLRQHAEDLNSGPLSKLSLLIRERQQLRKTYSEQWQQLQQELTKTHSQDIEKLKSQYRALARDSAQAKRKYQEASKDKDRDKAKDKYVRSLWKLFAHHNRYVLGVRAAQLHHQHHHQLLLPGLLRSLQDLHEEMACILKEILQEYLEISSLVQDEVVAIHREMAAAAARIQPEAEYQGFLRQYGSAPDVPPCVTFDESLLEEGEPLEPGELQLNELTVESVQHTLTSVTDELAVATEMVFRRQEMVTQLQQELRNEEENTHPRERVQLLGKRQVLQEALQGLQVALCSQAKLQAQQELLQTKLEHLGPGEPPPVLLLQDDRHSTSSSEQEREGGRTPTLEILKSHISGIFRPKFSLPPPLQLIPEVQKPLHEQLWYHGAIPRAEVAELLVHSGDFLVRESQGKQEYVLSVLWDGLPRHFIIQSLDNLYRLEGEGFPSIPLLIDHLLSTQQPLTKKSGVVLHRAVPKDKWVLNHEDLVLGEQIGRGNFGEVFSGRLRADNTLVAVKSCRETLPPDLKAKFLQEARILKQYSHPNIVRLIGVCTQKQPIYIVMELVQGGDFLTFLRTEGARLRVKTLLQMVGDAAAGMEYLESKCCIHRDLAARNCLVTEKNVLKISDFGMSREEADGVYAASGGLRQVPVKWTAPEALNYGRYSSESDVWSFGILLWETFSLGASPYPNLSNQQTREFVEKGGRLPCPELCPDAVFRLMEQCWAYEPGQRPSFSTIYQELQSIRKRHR
Chain of MERTK (Q12866 whole entry, looked up): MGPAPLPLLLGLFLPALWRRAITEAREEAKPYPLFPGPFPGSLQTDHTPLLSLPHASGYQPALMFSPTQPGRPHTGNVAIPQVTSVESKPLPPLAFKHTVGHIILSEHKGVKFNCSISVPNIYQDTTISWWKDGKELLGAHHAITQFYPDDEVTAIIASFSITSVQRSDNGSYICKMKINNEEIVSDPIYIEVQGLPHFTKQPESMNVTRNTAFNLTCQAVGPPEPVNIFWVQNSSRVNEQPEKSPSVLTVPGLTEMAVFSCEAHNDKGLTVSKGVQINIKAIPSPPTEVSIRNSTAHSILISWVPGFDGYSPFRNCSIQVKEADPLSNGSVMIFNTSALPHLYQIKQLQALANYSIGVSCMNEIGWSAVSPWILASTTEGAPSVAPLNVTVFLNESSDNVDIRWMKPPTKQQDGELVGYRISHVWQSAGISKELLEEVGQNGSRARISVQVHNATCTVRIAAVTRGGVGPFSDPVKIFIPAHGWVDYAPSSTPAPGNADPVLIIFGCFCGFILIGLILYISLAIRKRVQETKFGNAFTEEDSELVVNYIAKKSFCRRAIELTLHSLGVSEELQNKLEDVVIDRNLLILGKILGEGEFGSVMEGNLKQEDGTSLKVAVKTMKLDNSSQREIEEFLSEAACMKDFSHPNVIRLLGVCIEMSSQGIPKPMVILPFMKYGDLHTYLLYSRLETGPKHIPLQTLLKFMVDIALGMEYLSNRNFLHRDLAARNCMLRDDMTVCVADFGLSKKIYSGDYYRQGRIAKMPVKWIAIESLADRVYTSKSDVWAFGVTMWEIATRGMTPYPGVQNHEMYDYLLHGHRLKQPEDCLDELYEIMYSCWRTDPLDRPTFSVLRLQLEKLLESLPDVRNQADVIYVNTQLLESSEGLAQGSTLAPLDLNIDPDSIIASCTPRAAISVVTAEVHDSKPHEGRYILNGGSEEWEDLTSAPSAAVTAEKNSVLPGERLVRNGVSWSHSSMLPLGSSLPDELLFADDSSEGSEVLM
Chain of Grb2 SH2 (P62993 whole entry, looked up): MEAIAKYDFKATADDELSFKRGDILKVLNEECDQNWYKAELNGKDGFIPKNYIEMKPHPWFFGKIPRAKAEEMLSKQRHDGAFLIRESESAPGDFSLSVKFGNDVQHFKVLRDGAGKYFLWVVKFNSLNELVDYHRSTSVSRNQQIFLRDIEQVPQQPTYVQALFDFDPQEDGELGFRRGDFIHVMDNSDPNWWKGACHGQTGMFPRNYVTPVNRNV
Chain of Hck (P08631 whole entry, looked up): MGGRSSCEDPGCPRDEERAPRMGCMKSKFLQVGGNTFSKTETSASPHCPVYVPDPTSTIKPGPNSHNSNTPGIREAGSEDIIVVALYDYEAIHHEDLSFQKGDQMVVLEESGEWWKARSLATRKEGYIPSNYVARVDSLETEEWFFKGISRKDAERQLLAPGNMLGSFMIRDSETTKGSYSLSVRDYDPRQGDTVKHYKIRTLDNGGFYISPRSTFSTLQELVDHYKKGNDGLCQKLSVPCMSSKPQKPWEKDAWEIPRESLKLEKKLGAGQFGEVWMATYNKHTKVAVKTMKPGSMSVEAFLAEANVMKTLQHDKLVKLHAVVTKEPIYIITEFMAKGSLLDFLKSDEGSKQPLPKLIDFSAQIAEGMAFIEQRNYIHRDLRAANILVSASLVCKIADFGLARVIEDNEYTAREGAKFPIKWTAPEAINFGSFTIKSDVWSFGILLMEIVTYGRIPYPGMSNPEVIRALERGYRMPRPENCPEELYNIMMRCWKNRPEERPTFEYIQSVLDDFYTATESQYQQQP
Chain of Fyn (P06241 whole entry, looked up): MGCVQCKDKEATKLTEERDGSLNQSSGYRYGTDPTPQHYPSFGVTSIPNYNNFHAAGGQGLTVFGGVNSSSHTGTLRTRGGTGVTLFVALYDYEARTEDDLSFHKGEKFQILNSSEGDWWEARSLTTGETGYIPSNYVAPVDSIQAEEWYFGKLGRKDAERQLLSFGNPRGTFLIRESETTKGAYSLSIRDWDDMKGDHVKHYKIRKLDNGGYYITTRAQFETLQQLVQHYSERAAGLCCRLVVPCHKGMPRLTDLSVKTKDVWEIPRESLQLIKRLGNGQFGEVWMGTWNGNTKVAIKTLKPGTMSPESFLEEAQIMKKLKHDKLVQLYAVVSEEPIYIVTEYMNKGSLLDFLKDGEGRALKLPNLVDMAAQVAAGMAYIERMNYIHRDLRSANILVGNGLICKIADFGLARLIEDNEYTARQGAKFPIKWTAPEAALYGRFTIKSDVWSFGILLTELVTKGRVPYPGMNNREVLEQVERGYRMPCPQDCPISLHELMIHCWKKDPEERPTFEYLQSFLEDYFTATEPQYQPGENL

Row | Sequence | phosphorylation enrichment (AncSZ) | phosphorylation enrichment (EPHB1) | phosphorylation enrichment (EPHB2) | phosphorylation enrichment (FGFR1) | phosphorylation enrichment (FGFR3) | phosphorylation enrichment (Fer (mouse)) | phosphorylation enrichment (Fes) | phosphorylation enrichment (Fyn) | phosphorylation enrichment (Hck) | phosphorylation enrichment (Jak2) | phosphorylation enrichment (MERTK) | phosphorylation enrichment (c-Abl (mouse)) | phosphorylation enrichment (c-Src) | SH2 binding enrichment (Grb2 SH2) | SH2 binding enrichment (SHP2-C SH2) | SH2 binding enrichment (c-Src SH2)
1 | YAKSVYWENTL [NUP107_Y296] | 1.02 | 0.584 | 0.485 | 0.49 | 0.619 | 0.492 | 0.967 | 0.61 | 0.674 | 0.821 | 0.526 | 0.728 | 0.871 | 0.823 | 0.894 | 1.12
2 | YASALYRQRRS [FGF11_Y162] | 0.613 | 0.433 | 0.62 | 0.507 | 0.58 | 0.431 | 0.632 | 0.687 | 0.548 | 0.513 | 0.535 | 0.703 | 0.659 | 0.649 | 0.34 | 0.419
3 | YCRHNYGVVES [HLA-DRB1_Y112] | 0.557 | 1.52 | 2.87 | 0.568 | 0.527 | 0.41 | 0.798 | 0.385 | 0.458 | 0.681 | 0.592 | 0.675 | 0.484 | 1.2 | 0.927 | 1.64
4 | YDEYRYRSVIK [CFTR_Y517] | 1.04 | 0.584 | 0.589 | 0.435 | 0.67 | 0.529 | 0.973 | 1.76 | 1.14 | 1.16 | 0.706 | 1.05 | 2.15 | 0.788 | 0.606 | 1.25
5 | YEDALYTVLHR [UNC13D_Y61] | 3.84 | 16.6 | 15.9 | 3.68 | 3.1 | 12.9 | 2.06 | 8.38 | 9.13 | 1.7 | 9.59 | 11.5 | 7.21 | 0.86 | 0.46 | 2.38
6 | YGGLRYGYGVL [KRTAP20-2_Y13] | 0.671 | 0.415 | 0.608 | 0.559 | 0.518 | 0.448 | 0.741 | 1.25 | 1.42 | 0.658 | 0.497 | 0.536 | 1.64 | 1.07 | 1.09 | 0.707
7 | YGLQAYTKVKT [ALDH2_Y502_E504K] | 1.26 | 0.445 | 0.462 | 0.45 | 0.679 | 0.427 | 1.08 | 0.357 | 0.377 | 1.23 | 0.414 | 0.614 | 0.435 | 0.811 | 2.67 | 1.85
8 | YKPGFYNLKEK [LAMA1_Y490_C485Y] | 0.659 | 0.343 | 0.431 | 0.352 | 0.402 | 0.432 | 0.628 | 0.421 | 0.397 | 0.891 | 0.366 | 0.971 | 0.491 | 1.27 | 1.5 | 0.814
9 | YLEKYYKFGCR [NNMT_Y25_S29C] | 1.18 | 0.775 | 0.588 | 0.569 | 0.928 | 0.55 | 1.55 | 0.549 | 0.564 | 1.34 | 0.649 | 1.02 | 0.739 | 0.938 | 0.94 | 0.681
10 | YPLELYERVRI [PRKCG_Y312_M317I] | 1.08 | 1.9 | 1.23 | 0.459 | 0.56 | 4.38 | 1.01 | 0.584 | 1.74 | 0.895 | 0.437 | 0.58 | 0.493 | 0.974 | 0.736 | 1.03
11 | YPPDGYSRHCE [CTNND1_Y213_Y217C] | 0.883 | 0.461 | 0.487 | 0.496 | 0.568 | 0.514 | 0.941 | 0.585 | 0.555 | 0.816 | 0.505 | 0.738 | 0.462 | 0.9 | 0.666 | 0.693
12 | YQCKHYACIRQ [TIMP3_Y182_S179C] | 0.601 | 0.371 | 0.363 | 0.336 | 0.455 | 0.399 | 0.662 | 0.347 | 0.275 | 0.55 | 0.46 | 0.514 | 0.362 | 1.74 | 4.01 | 2.39
13 | YQSKHYACIRQ [TIMP3_Y182] | 0.673 | 0.462 | 0.451 | 0.52 | 0.45 | 0.554 | 0.762 | 0.418 | 0.55 | 0.626 | 0.534 | 0.648 | 0.406 | 1.21 | 6.64 | 2.08
14 | YRAPGYREVVI [TNS2_Y673] | 0.587 | 0.445 | 0.43 | 0.52 | 0.443 | 0.432 | 0.634 | 0.474 | 0.439 | 0.509 | 0.403 | 2.11 | 0.419 | 1.11 | 0.889 | 0.633
15 | YRDALYKFMVD [PHEX_Y250] | 1.14 | 1.24 | 0.797 | 0.869 | 1.25 | 0.678 | 1.33 | 0.61 | 0.712 | 1.11 | 1.2 | 0.803 | 0.624 | 0.846 | 0.665 | 0.572
16 | YRQLPYCPSVE [CTNND2_Y508_Q507P] | 1.51 | 0.692 | 0.747 | 1.48 | 1.41 | 0.804 | 1.53 | 0.647 | 1.09 | 1.41 | 0.728 | 5.88 | 0.881 | 0.686 | 0.585 | 0.494
17 | YRTGHYLCNAC [GATA1_Y223_D218Y] | 0.477 | 0.341 | 0.415 | 0.412 | 0.41 | 0.271 | 0.506 | 0.383 | 0.376 | 0.424 | 0.355 | 0.524 | 0.31 | 1.01 | 1.12 | 0.968
18 | YSDPSYVKQME [CDC5L_Y464] | 1.1 | 0.392 | 0.57 | 0.985 | 0.716 | 0.409 | 0.817 | 0.434 | 0.593 | 0.557 | 0.578 | 0.537 | 0.473 | 0.8 | 0.608 | 1.05
19 | YVFSFYHAFSG [ACTN4_Y265_S262F] | 1.37 | 1.15 | 0.825 | 0.921 | 1.13 | 0.69 | 1.43 | 0.692 | 0.835 | 1.44 | 3.14 | 1.1 | 0.964 | 1.19 | 1.23 | 0.889
